Reference: patent US20130344073A1

Assays:
human MASP-1 (human) = human MASP-1 (human) (UniProt P48740); test: cell-based or functional assay
human MASP-2 (human) = human MASP-2 (human) (UniProt O00187); test: cell-based or functional assay
Chain of human MASP-2 (human) (O00187 16-686): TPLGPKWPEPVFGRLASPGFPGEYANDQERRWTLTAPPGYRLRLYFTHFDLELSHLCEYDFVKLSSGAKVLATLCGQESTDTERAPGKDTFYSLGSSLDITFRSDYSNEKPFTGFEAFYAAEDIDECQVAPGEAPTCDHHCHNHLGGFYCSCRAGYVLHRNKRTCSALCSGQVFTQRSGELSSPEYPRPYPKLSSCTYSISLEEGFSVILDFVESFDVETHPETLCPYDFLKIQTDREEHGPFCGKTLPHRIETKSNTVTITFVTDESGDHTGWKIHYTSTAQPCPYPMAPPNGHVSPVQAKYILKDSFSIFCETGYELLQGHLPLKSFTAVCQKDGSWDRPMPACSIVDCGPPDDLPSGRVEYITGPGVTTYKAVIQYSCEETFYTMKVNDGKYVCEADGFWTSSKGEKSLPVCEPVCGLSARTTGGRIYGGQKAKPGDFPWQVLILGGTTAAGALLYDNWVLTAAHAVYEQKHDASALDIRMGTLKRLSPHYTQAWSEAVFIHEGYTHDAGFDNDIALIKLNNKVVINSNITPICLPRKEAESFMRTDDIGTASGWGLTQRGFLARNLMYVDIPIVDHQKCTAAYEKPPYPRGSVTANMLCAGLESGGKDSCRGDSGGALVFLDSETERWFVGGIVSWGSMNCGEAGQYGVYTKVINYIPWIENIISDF

Chain of human MASP-1 (human) (P48740 other isoform, or with tags, fused parts or gaps): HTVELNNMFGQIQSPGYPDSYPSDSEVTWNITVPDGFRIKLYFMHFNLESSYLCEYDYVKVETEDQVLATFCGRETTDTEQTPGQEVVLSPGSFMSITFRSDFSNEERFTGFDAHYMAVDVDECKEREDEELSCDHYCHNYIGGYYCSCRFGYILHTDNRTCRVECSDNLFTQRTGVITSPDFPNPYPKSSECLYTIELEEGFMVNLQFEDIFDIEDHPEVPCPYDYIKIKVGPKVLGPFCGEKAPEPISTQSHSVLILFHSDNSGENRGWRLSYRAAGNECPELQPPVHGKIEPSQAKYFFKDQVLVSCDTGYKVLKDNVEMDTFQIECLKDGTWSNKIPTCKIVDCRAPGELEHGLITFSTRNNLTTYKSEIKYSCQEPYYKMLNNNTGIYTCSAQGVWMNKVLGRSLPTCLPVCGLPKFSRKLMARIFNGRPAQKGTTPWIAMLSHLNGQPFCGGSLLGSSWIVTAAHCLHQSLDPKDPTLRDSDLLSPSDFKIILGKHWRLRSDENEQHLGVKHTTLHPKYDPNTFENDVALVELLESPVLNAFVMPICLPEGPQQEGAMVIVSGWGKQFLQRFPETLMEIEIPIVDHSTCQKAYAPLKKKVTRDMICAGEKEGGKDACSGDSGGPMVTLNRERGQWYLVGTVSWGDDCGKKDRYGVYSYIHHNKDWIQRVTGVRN

SGMI-1Fc, mature polypeptide fusion comprising SGMI-1, linker and human IgG1-Fc (Fc fusion)
C3b deposition from 1% normal human serum on mannan (IC50) (human MASP-1 (human)): 27 nM

SGMI-2Fc, mature polypeptide fusion comprising SGMI-2, linker and human IgG1-Fc (Fc fusion)
C3b deposition from 1% normal human serum on mannan (IC50) (human MASP-2 (human)): 300 nM
